# Assay results published in publication PMC9352680, “A comprehensive thermodynamic model for RNA binding by the Saccharomyces cerevisiae Pumilio protein PUF4”.
# T1: PUF4 RNA-binding domain (Saccharomyces cerevisiae, UniProt P25339 537-888)
# T1 sequence: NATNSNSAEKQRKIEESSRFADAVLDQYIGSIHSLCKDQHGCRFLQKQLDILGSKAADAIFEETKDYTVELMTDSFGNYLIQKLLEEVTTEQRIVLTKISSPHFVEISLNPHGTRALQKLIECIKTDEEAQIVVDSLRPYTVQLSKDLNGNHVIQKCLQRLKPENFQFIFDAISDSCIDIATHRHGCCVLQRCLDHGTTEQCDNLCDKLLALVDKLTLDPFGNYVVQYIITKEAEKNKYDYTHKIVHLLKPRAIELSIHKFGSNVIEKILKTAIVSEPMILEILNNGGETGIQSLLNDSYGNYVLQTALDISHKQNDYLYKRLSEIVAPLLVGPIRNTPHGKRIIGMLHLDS
# Target: T1, PUF4 RNA-binding domain
# Test: Mg; RNA-MaP; 20 mM Na-HEPES pH 7.4, 30 mM KOAc, 0.75 mM MgCl2, 0.1% Tween-20, 5% glycerol, 0.1 mg/mL BSA, 2 mM DTT; 25 C; 0.0125-409.6 nM protein
# Details: tags: N-His6-TEV cleaved; C-SNAP kept, Cy3B-labelled; label: tethered on chip by stalled RNA polymerase
row,Binder,Kd
1,UCUCUUUGUAAACAAUCUCUU (ssRNA) [Ic_S1_P4E.1_K4.1_C4.1_H4.1_A4.1_[T5A]_[T7C]_F4.1_[T8A]_T4.1],57.4 nM
2,UCUCUUUGUAAACUGUCUCUU (ssRNA) [Ic_S1_P4E.1_K4.1_C4.1_H4.1_A4.1_[T5A]_[T7C]_F4.1_[A9G]_T4.1],17.2 nM
3,UCUCUUUGUAAAAAUUCUCUU (ssRNA) [Ic_S1_P4E.1_K4.1_C4.1_H4.1_A4.1_[T5A]_[T7A]_F4.1_[T8A]_[A9T]_T4.1],373 nM
4,UCUCUUUGUACAAAUCUCUU (ssRNA) [Ic_S1_P3E.1_K3.1_C3.1_H3.1_A3.1_[T5C]_F3.1_[T7A]_T3.1],100 nM
5,UCUCUUUGUAAUAACUCUCUU (ssRNA) [Ic_S1_P4E.1_K4.1_C4.1_H4.1_A4.1_[T5A]_[A6T]_[T7A]_F4.1_[T8A]_[A9C]_T4.1],642 nM
6,UCUCUUUGUAAACACUCUCUU (ssRNA) [Ic_S1_P4E.1_K4.1_C4.1_H4.1_A4.1_[T5A]_[T7C]_F4.1_[T8A]_[A9C]_T4.1],565 nM
7,UCUCUUUGUAAACUUUCUCUU (ssRNA) [Ic_S1_P4E.1_K4.1_C4.1_H4.1_A4.1_[T5A]_[T7C]_F4.1_[A9T]_T4.1],24.7 nM
8,UCUCUUUGUAAAUAUUCUCUU (ssRNA) [Ic_S1_P4E.1_K4.1_C4.1_H4.1_A4.1_[T5A]_F4.1_[T8A]_[A9T]_T4.1],26.2 nM
9,UCUCUUUGUCUAUUUCUCUU (ssRNA) [Ib_S1_P3E.1_K3.1_C3.1_H3.1_[A4C]_A3.1_F3.1_[A8T]_T3.1],823 nM
10,UCUCUUUGUAAUUUUUCUCUU (ssRNA) [Ic_S1_P4E.1_K4.1_C4.1_H4.1_A4.1_[T5A]_[A6T]_F4.1_[A9T]_T4.1],34.7 nM
11,UCUCUUUGUAAACGCUCUCUU (ssRNA) [Ic_S1_P4E.1_K4.1_C4.1_H4.1_A4.1_[T5A]_[T7C]_F4.1_[T8G]_[A9C]_T4.1],833 nM
12,UCUCUUUGUAAAUGCUCUCUU (ssRNA) [Ic_S1_P4E.1_K4.1_C4.1_H4.1_A4.1_[T5A]_F4.1_[T8G]_[A9C]_T4.1],377 nM
13,UCUCUUUGUAAUUCGUCUCUU (ssRNA) [Ic_S1_P4E.1_K4.1_C4.1_H4.1_A4.1_[T5A]_[A6T]_F4.1_[T8C]_[A9G]_T4.1],517 nM
14,UCUCUUUGUAAUUAGUCUCUU (ssRNA) [Ic_S1_P4E.1_K4.1_C4.1_H4.1_A4.1_[T5A]_[A6T]_F4.1_[T8A]_[A9G]_T4.1],126 nM
15,UCUCUUUGUAAAAUCUCUCUU (ssRNA) [Ic_S1_P4E.1_K4.1_C4.1_H4.1_A4.1_[T5A]_[T7A]_F4.1_[A9C]_T4.1],54.4 nM
16,UCUCUUUGUAAACAGUCUCUU (ssRNA) [Ic_S1_P4E.1_K4.1_C4.1_H4.1_A4.1_[T5A]_[T7C]_F4.1_[T8A]_[A9G]_T4.1],508 nM
17,UCUCUUUGUAAACAUCUCUU (ssRNA) [Ib_S1_P3E.1_K3.1_C3.1_H3.1_A3.1_[T5A]_F3.1_[T7C]_T3.1],424 nM
18,UCUCUUUGUAAAGCCUCUCUU (ssRNA) [Ic_S1_P4E.1_K4.1_C4.1_H4.1_A4.1_[T5A]_[T7G]_F4.1_[T8C]_[A9C]_T4.1],1020 nM
19,UCUCUUUGUAAAGCAUCUCUU (ssRNA) [Ic_S1_P4E.1_K4.1_C4.1_H4.1_A4.1_[T5A]_[T7G]_F4.1_[T8C]_T4.1],387 nM
20,UCUCUUUGUAUGGCGUCUCUU (ssRNA) [Ic_S1_P4E.1_K4.1_C4.1_H4.1_A4.1_[A6G]_[T7G]_F4.1_[T8C]_[A9G]_T4.1],> 2300 nM

row,Binder,Kd
1,UCUCUUUGUAUGGCUUCUCUU (ssRNA) [Ic_S1_P4E.1_K4.1_C4.1_H4.1_A4.1_[A6G]_[T7G]_F4.1_[T8C]_[A9T]_T4.1],1630 nM
2,UCUCUUUGUAAAAUUUCUCUU (ssRNA) [Ic_S1_P4E.1_K4.1_C4.1_H4.1_A4.1_[T5A]_[T7A]_F4.1_[A9T]_T4.1],33.5 nM
3,UCUCUUUGUAAAACAUCUCUU (ssRNA) [Ic_S1_P4E.1_K4.1_C4.1_H4.1_A4.1_[T5A]_[T7A]_F4.1_[T8C]_T4.1],41.1 nM
4,UCUCUUUGUAAAUACUCUCUU (ssRNA) [Ic_S1_P4E.1_K4.1_C4.1_H4.1_A4.1_[T5A]_F4.1_[T8A]_[A9C]_T4.1],36.7 nM
5,UCUCUUUGUAAUUUGUCUCUU (ssRNA) [Ic_S1_P4E.1_K4.1_C4.1_H4.1_A4.1_[T5A]_[A6T]_F4.1_[A9G]_T4.1],28.5 nM
6,UCUCUUUGUAAAGCGUCUCUU (ssRNA) [Ic_S1_P4E.1_K4.1_C4.1_H4.1_A4.1_[T5A]_[T7G]_F4.1_[T8C]_[A9G]_T4.1],2010 nM
7,UCUCUUUGUAAAAACUCUCUU (ssRNA) [Ic_S1_P4E.1_K4.1_C4.1_H4.1_A4.1_[T5A]_[T7A]_F4.1_[T8A]_[A9C]_T4.1],526 nM
8,UCUCUUUGUAAUUGGUCUCUU (ssRNA) [Ic_S1_P4E.1_K4.1_C4.1_H4.1_A4.1_[T5A]_[A6T]_F4.1_[T8G]_[A9G]_T4.1],1880 nM
9,UCUCUUUGUAAACAUUCUCUU (ssRNA) [Ic_S1_P4E.1_K4.1_C4.1_H4.1_A4.1_[T5A]_[T7C]_F4.1_[T8A]_[A9T]_T4.1],165 nM
10,UCUCUUUGUAAUAUGUCUCUU (ssRNA) [Ic_S1_P4E.1_K4.1_C4.1_H4.1_A4.1_[T5A]_[A6T]_[T7A]_F4.1_[A9G]_T4.1],12.5 nM
11,UCUCUUUGUAAUUAUUCUCUU (ssRNA) [Ic_S1_P4E.1_K4.1_C4.1_H4.1_A4.1_[T5A]_[A6T]_F4.1_[T8A]_[A9T]_T4.1],92.4 nM
12,UCUCUUUGUAAUAAUUCUCUU (ssRNA) [Ic_S1_P4E.1_K4.1_C4.1_H4.1_A4.1_[T5A]_[A6T]_[T7A]_F4.1_[T8A]_[A9T]_T4.1],172 nM
13,UCUCUUUGUAAACUCUCUCUU (ssRNA) [Ic_S1_P4E.1_K4.1_C4.1_H4.1_A4.1_[T5A]_[T7C]_F4.1_[A9C]_T4.1],33.8 nM
14,UCUCUUUGUAUGGUCUCUCUU (ssRNA) [Ic_S1_P4E.1_K4.1_C4.1_H4.1_A4.1_[A6G]_[T7G]_F4.1_[A9C]_T4.1],1260 nM
15,UCUCUUUGUAAAGUCUCUCUU (ssRNA) [Ic_S1_P4E.1_K4.1_C4.1_H4.1_A4.1_[T5A]_[T7G]_F4.1_[A9C]_T4.1],406 nM
16,UCUCUUUGUAUGGUUUCUCUU (ssRNA) [Ic_S1_P4E.1_K4.1_C4.1_H4.1_A4.1_[A6G]_[T7G]_F4.1_[A9T]_T4.1],542 nM
17,UCUCUUUGUAUGCGCUCUCUU (ssRNA) [Ic_S1_P4E.1_K4.1_C4.1_H4.1_A4.1_[A6G]_[T7C]_F4.1_[T8G]_[A9C]_T4.1],> 2300 nM
18,UCUCUUUGUAAUAUAUCUCUU (ssRNA) [Ic_S1_P4E.1_K4.1_C4.1_H4.1_A4.1_[T5A]_[A6T]_[T7A]_F4.1_T4.1],2.68 nM
19,UCUCUUUGUAUGGCCUCUCUU (ssRNA) [Ic_S1_P4E.1_K4.1_C4.1_H4.1_A4.1_[A6G]_[T7G]_F4.1_[T8C]_[A9C]_T4.1],> 2300 nM
20,UCUCUUUGUAAUUGCUCUCUU (ssRNA) [Ic_S1_P4E.1_K4.1_C4.1_H4.1_A4.1_[T5A]_[A6T]_F4.1_[T8G]_[A9C]_T4.1],682 nM

row,Binder,Kd
1,UCUCUUUGUAAAACUUCUCUU (ssRNA) [Ic_S1_P4E.1_K4.1_C4.1_H4.1_A4.1_[T5A]_[T7A]_F4.1_[T8C]_[A9T]_T4.1],106 nM
2,UCUCUUUGUUUAUUUCUCUU (ssRNA) [Ib_S1_P3E.1_K3.1_C3.1_H3.1_[A4T]_A3.1_F3.1_[A8T]_T3.1],426 nM
3,UCUCUUUGUAAUUGAUCUCUU (ssRNA) [Ic_S1_P4E.1_K4.1_C4.1_H4.1_A4.1_[T5A]_[A6T]_F4.1_[T8G]_T4.1],712 nM
4,UCUCUUUGUAAUUAAUCUCUU (ssRNA) [Ic_S1_P4E.1_K4.1_C4.1_H4.1_A4.1_[T5A]_[A6T]_F4.1_[T8A]_T4.1],216 nM
5,UCUCUUUGUAAAUCCUCUCUU (ssRNA) [Ic_S1_P4E.1_K4.1_C4.1_H4.1_A4.1_[T5A]_F4.1_[T8C]_[A9C]_T4.1],368 nM
6,UCUCUUUGUAAAAGCUCUCUU (ssRNA) [Ic_S1_P4E.1_K4.1_C4.1_H4.1_A4.1_[T5A]_[T7A]_F4.1_[T8G]_[A9C]_T4.1],2280 nM
7,UCUCUUUGUAAACCCUCUCUU (ssRNA) [Ic_S1_P4E.1_K4.1_C4.1_H4.1_A4.1_[T5A]_[T7C]_F4.1_[T8C]_[A9C]_T4.1],1020 nM
8,UCUCUUUGUACACAUCUCUU (ssRNA) [Ic_S1_P3E.1_K3.1_C3.1_H3.1_A3.1_[T5C]_F3.1_[T7C]_T3.1],46.1 nM
9,UCUCUUUGUAAAGCUUCUCUU (ssRNA) [Ic_S1_P4E.1_K4.1_C4.1_H4.1_A4.1_[T5A]_[T7G]_F4.1_[T8C]_[A9T]_T4.1],658 nM
10,UCUCUUUGUAAUUCUUCUCUU (ssRNA) [Ic_S1_P4E.1_K4.1_C4.1_H4.1_A4.1_[T5A]_[A6T]_F4.1_[T8C]_[A9T]_T4.1],123 nM
11,UCUCUUUGUAAUUUCUCUCUU (ssRNA) [Ic_S1_P4E.1_K4.1_C4.1_H4.1_A4.1_[T5A]_[A6T]_F4.1_[A9C]_T4.1],83.9 nM
12,UCUCUUUGUAAAACCUCUCUU (ssRNA) [Ic_S1_P4E.1_K4.1_C4.1_H4.1_A4.1_[T5A]_[T7A]_F4.1_[T8C]_[A9C]_T4.1],523 nM
13,UCUCUUUGUAAUUGUUCUCUU (ssRNA) [Ic_S1_P4E.1_K4.1_C4.1_H4.1_A4.1_[T5A]_[A6T]_F4.1_[T8G]_[A9T]_T4.1],98.4 nM
14,UCUCUUUGUUUAUCUCUCUU (ssRNA) [Ib_S1_P3E.1_K3.1_C3.1_H3.1_[A4T]_A3.1_F3.1_[A8C]_T3.1],1280 nM
15,UCUCUUUGUAAAAUGUCUCUU (ssRNA) [Ic_S1_P4E.1_K4.1_C4.1_H4.1_A4.1_[T5A]_[T7A]_F4.1_[A9G]_T4.1],27.1 nM
16,UCUCUUUGUAAACCGUCUCUU (ssRNA) [Ic_S1_P4E.1_K4.1_C4.1_H4.1_A4.1_[T5A]_[T7C]_F4.1_[T8C]_[A9G]_T4.1],951 nM
17,UCUCUUUGUAAUUACUCUCUU (ssRNA) [Ic_S1_P4E.1_K4.1_C4.1_H4.1_A4.1_[T5A]_[A6T]_F4.1_[T8A]_[A9C]_T4.1],670 nM
18,UCUCUUUGUAAUAUCUCUCUU (ssRNA) [Ic_S1_P4E.1_K4.1_C4.1_H4.1_A4.1_[T5A]_[A6T]_[T7A]_F4.1_[A9C]_T4.1],36 nM
19,UCUCUUUGUAAAUAGUCUCUU (ssRNA) [Ic_S1_P4E.1_K4.1_C4.1_H4.1_A4.1_[T5A]_F4.1_[T8A]_[A9G]_T4.1],11.5 nM
